In patent WO2023190851A1 (dated 2023) one finds Kd data, which are given here for one molecule.

This test deals with SARS-CoV-2 Spike RBD, His Tag (BA.2/Omicron) (SARS-CoV-2, Omicron BA.2 lineage, UniProt P0DTC2 319-537).

B1: natural human IgG antibody (HIG001677) (antibody, V domains shown)
VH: EVQLVESGGGLVQPGGSLRLACAASGLTVSRNYMNWVRQAPGKGLEWVSLVYPGGSTFYADSVKGRFTISRDNSKNTLYLQMNSLRADDTAVYYCAREVRGRGDYWGQGTLVTVST
VL: DIQMTQSPSSLSASVGDRVTITCQASQDINKYLNWYQQKPGKAPKLLIYDASNLEPGVPSRFSGSGSGTDFTFTISNLQPEDIATYYCQNYDNLPQTFGQGTRLEIKR
A word on the Kd: it is a measure of binding affinity in units of concentration. The low end stands for a tighter complex, the high end for a looser complex. Molecule B1 yielded a Kd of 8.58 nM. This lies in the single-digit nanomolar range.
